# Reference: paper PMC11357225
# Values joined by “and” are separate entries in the source; they are usually repeats but may differ in a detail not shown here. Equal values may be shown once.
# Legend:
# [1] = target: human lactoferrin (human); test: SPR
# [2] = target: human lactoferrin (human)
# [3] = target: human lactoferrin (human); test: native gel or EMSA
Substance,Kd [1],percent of input bound [2] [%],koff [1] [s⁻¹],kon [1] [M⁻¹ s⁻¹],stoichiometry N [3]
"SARS-CoV-2 spike protein (S-protein), ancestral Wuhan-like variant (from UniProt P0DTC2 14-1213) (natural protein)",4.32 nM,60,–,–,–
"receptor-binding domain of the SARS-CoV-2 S-protein, ancestral Wuhan-like variant (from UniProt P0DTC2) (domain or fragment)",1260 nM and 1310 nM,30,0.308,245000,1
